experiment: soluble on expression in E. coli; label from the status in PepcDB or PDB records

Soluble on expression in E. coli, not soluble:
MGSDKIHHHHHHMTKLHYIRNKDCNMKEGLKLNKGKLIAQGKTSEVFEYGQDKILKLFRKDLPEKNIENEYEVSFNLSKKMKLVPKVYDLVEVDDRKGIIYEKVNGTTMMEVISSKPWKVKKEAQRLAELHEAIQKPVDFELPDYKTTLKENISKTELLEEDIKKRLYDYIDELKDDDLLCHGDFHPDNVLITEEGEVIIDWMTASKGSRIADIARTSVMLKFGASPVKRSAEKKIIKFVRNRFYSGYIKHYMKITGINKEQIEEWELPIAAARLNEWLPKSEKVDLLKFIDMKMK
MGSDKIHHHHHHMTKREGGIKMAEKRRKRVVILGAAGRDFHNFNVFFRNNPEYEVVAFTATQIPDIEGRIYPPELAGELYPNGIPILPEDDLEKIIKEKDVDIVVFAYSDVSHEHVMHLASRAHSAGADFWLLGPKSTMIESKKPVVAVTAVRTGCGKSQTSRKVAQLLQEMGYKVAVIRHPMPYGDLRKQIVQRFASFEDLDRYECTIEEREEYEPYIERGMVVYAGVDYEKILREAEKEADIILWDGGNNDFPFYKPDLWIVVTDPHRPGHELTHHPGETNFRSADVIIINKIDTAYPENVQKIRENIEKVNPNAIVIEAASPIFVDKPELIKGKRVLVIEDGPTLTHGGMSYGAGYIAAKKFGAKEIVDPRPYAVGSIIETYKKYPHLSNILPAMGYGKKQIKELEETINRADADVVIMGTPVDLRRFMNLNKPAVRVKYELEEIGQPKLKDILEEWVKKCEKLKK
MGSDKIHHHHHHMTKVKLNFNKPSNVFNRNIFEILTNYDNFTEVHYGGGSSGKSHGVIQKVVLKALQDWKYPRRILWLRKVQSTIKDSLFEDVKDCLINFGIWDMCLWNKTDNKVELPNGAVFLFKGLDNPEKIKSIKGISDIVMEEASEFTLNDYTQLTLRLRERKHVNKQIFLMFNPVSKLNWVYKYFFEHGEPMENVMIRQSSYRDNKFLDEMTRQNLELLANRNPAYYKIYALGEFATLDKMVFPKYEKRLINKDELRHLPSYFGLDFGYVNDPSAFIHSKIDVKKKKLYIIEEYVKQGMLNDEIANVIKQLGYAKEEITADSAEQKSIAELRNLGLKRILPTKKGKGSVVQGLQFLMQFEIIVDERCFKTIEEFDNYTWQKDKDTGEYTNEPVDTYNHCIDSLRYSVERFYRPVRKRTNVSSKVDTIKSLGL
MGSDKIHHHHHHMTLDAVLTQIDTDLDAAMARLMALLRVPSISTDPAFDADVARAAQILCDDLTGLGFDASVRETTGHPMVVAHGDDTGPHVLFYGHYDVQPVDPLDLWDRDPFDPIIEEQNGKKVIRARGASDDKGQLMTFIEACRAWKAVTGKLPAKVTIFLEGEEESGSPSLVPFMEAHKDELTAEVALICDTGLFAEGVPAIVTQLRGMLQEEITVTGPRIDLHSGMFGGIAMNPIRVLSGVLAGLHDANGSVTVPGFYEGVPDISDDLRASWDALGFVPEAFLGPVGLSHPAGEAGRSGLEMIWSRPTAEVNGVWGGYTGAGFKTVLPSQAHAKISFRLVAGQDPDRLHENFVDWVTAQMPPDCTVSITQIAGSRASQMDTSHPIFETTRQALSDEWPNEAAYIGCGGSIPVAGHFKTILGMDSVLAGFGKDDDAIHSPNEKYDVESFHRGIRSWARVLGGLSEV
MGSDKIHHHHHHMTLELIPVGISACLLGNPVRFDGGHKRLTFAVEELAPYFRFESVCPEMAIGLPVPRPALRLVREGESHVTMRASNGSSLDVTQQITVFSADKVSQLQHLCGYIVCAKSPSCGMERVKVYDEAQKNARKSGVGLFTQELMRQMPWLPVEEDGRLHDSGLRENFIERVYALHELNQLWKNGLSRGALIAFHSRYKLLLLAHSQPEYRELGPFVAGIDKWESLEEYVVEYRTRLMKLLSTPATRRNHTNVLMHVQGYFRRQLSSQQRQELAQLIDRYRQGLQPLLAPITLLKHYMAEYPDAYLAQQRYFEPYPEALRLRYGH
MGSDKIHHHHHHMTLKSRIGILAGKTAHFFLSKIGRGSTLPGKIALKCDKDILDTLAKDYDIVVVTGTNGKTLTTALTVGILKEAYGQVLTNPSGANMITGITSTFLTAKKSRNGKKIAVLEIDEASLPKITDYLKPSLFVFTNIFRDQMDRYGEIYTTYQMILDGAAKAPKATILANGDSPLFNAKTVVNPVRYYGFDTKKEAAHLAHYNTEGIVCPKCEYILQYKLNTYANLGDYICPNCGFHRPHLDYSLTQLTKISNTQAEFIIDGQDYKINVGGLYNIYNALAAVAVAEFLGVTPEQIKAGFDKSRAVFGRQETFKIGDKSCTLVLIKNPVGASQALEMIKLAPYPFTLSVLLNANYADGIDTSWIWDANFESILDMNIPQIFTGGVRHSEIARRLRVTGYNETKIEQAEKLEDILSMIEKQEADHAYILATYTAMLEFRELLASRHAVRKEMH

Source: the DeepSol protein solubility set
